From publication PMC5522039, “Non-invasive assessment of murine PD-L1 levels in syngeneic tumor models by nuclear imaging with nanobody tracers” (Oncotarget, 2017)
Positions count from the first letter of the chain named.

B1: F1 (VHH)
VHH: QVQLQESGGGLVQAGGSLRLSCTASRTTSSINIMAWYRQAPGKRRELVALSIRGGNTHYADSVKGRFTISGVHANNTVYLQMNSLKPEDTAVYYCNTGGYWGQGTQVTVSS
B2: H1 (VHH)
VHH: QVQLQESGGGLVQAGGSLRLSCAASGRTFSSRGMGWFRQAPGKEREFVAAISWGGGTTYYADSVKGRFTISRDNAKNTVYLQMNSLKPEDTAVYYCAAHTGFPHEYDYWGQGTQVTVSS
B3: Nb C7 (VHH)
VHH: QVQLQESGGGSVQAGESLTLSCTASGSSLSHKSVGWWRQTPGNQRELVALVASGNNTNYVDSVKGRFTVSRDNAKNTMYLQMNSLKPEDTAVYYCRILSVNGIWYWGQGTQVTVSS
notes: Nanobody from a dromedary immunised with RAW264.7 cells; recloned into pHEN6 for the C-terminal His6 tag; also called anti-PD-L1 Nb C7; source: E. coli fermentation cultures, purified; not shown: His6, C-terminal, kept
B4: Nb C3 (VHH)
VHH: QVQLQESGGGLVQTGGSLRLSCAASGSTVSSSMMAWWRQTPGNQRELVALVASGNNTNYVDSVKGRFTVSRDNAKNTMYLQMNSLKPEDTAVYYCRILSVNGIWYWGQGTQVTVSS
notes: Nanobody from a dromedary immunised with RAW264.7 cells; recloned into pHEN6 for the C-terminal His6 tag; also called anti-PD-L1 Nb C3; source: E. coli fermentation cultures, purified; not shown: His6, C-terminal, kept
B5: Nb E2 (VHH)
VHH: QVQLQESGGGLVQAGGSLRLSCATSGSIFSIISMGWYRQAPGKQRELVALVFRGGSTVYADSVKGRFTISGDIAKNTVYLQMDSLKPEDTAVYYCNVKSIGTAQYWGQGTQITVSS
notes: Nanobody from a dromedary immunised with RAW264.7 cells; recloned into pHEN6 for the C-terminal His6 tag; also called anti-PD-L1 Nb E2; source: E. coli fermentation cultures, purified; not shown: His6, C-terminal, kept
B6: Nb E4 (VHH)
VHH: B5 VHH with Q13H, A14P, N76S, V97A, S99P, I112V
notes: Nanobody from a dromedary immunised with RAW264.7 cells; recloned into pHEN6 for the C-terminal His6 tag; also called anti-PD-L1 Nb E4; source: E. coli fermentation cultures, purified; not shown: His6, C-terminal, kept

Each binder was assayed against T1, His-tagged recombinant mouse PD-L1 protein (Mus musculus, UniProt Q9EP73) (assay: not given). Conditions: not given.
T1 sequence (Q9EP73 19-239): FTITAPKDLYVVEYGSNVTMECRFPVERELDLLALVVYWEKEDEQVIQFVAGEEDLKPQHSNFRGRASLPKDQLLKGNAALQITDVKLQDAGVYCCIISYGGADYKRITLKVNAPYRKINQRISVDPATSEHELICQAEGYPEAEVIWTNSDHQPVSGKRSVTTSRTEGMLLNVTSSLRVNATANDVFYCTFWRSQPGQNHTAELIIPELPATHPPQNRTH

Binder	binding result
B1	binds
B2	binds

These binders were tested against T1, His-tagged recombinant mouse PD-L1 … (assay: SPR; His-tagged mouse or human PD-L1 immobilised on a CM5 chip (EDC/NHS, between 650 and 900 RU); purified Nbs, 9 dilutions, 120 sec binding, 160 sec dissociation; Biacore T200, 25°C, HBS (0.01 M HEPES pH 7.4, 0.15 M NaCl, 3 mM EDTA, 0.005% Tween 20); 1-to-1 fit; n = 1). Conditions: both partners purified.

Binder	Kd [nM]
B3	17
B4	0.5
B5	2.1
B6	4
